According to the supplement of paper PMC9233669:
Fewer inactive variants are shown than the library holds.

Key:
[1] = test system: biotinyl-Met-oxazolone; assay: self-aminoacylation, catalytic enhancement (BMO) (fold over background); higher = more active; k-Seq, kA / k0A0; sequences stand for … in GGGAAUGGAUCCACAUCUACGAAUUC…UUCACUGCAGACUUGACGAAGCUG
In short: (§1)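 The uncatalyzed rate is the low-activity peak of a bimodal Gaussian fit, and catalytic enhancement is median kA divided by it. The kA values came from pseudo-first-order fits, with 1000 bootstraps, of per-sequence fraction reacted measured by streptavidin capture, triplicate qPCR and Illumina sequencing. Mutagenized RNA pools with a 21-nt variable region (0.43 μM) were reacted with each biotinyl-aminoacyl-oxazolone at 2–1250 μM in 50 μL HEPES/NaCl/KCl/MgCl2/CaCl2 buffer with 5% acetonitrile, pH 6.9–7.0, for 90 minutes at room temperature.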

[2] = test system: biotinyl-Leu-oxazolone; assay: self-aminoacylation, catalytic enhancement (BLO) (fold over background); higher = more active; k-Seq, kA / k0A0; sequences stand for … in GGGAAUGGAUCCACAUCUACGAAUUC…UUCACUGCAGACUUGACGAAGCUG
In short: as §1

[3] = test system: biotinyl-Phe-oxazolone; assay: self-aminoacylation, catalytic enhancement (BFO) (fold over background); higher = more active; k-Seq, kA / k0A0; sequences stand for … in GGGAAUGGAUCCACAUCUACGAAUUC…UUCACUGCAGACUUGACGAAGCUG
In short: as §1

[4] = test system: biotinyl-Trp-oxazolone; assay: self-aminoacylation, catalytic enhancement (BWO) (fold over background); higher = more active; k-Seq, kA / k0A0; sequences stand for … in GGGAAUGGAUCCACAUCUACGAAUUC…UUCACUGCAGACUUGACGAAGCUG
In short: as §1

[5] = test system: biotinyl-Ile-oxazolone; assay: self-aminoacylation, catalytic enhancement (BIO) (fold over background); higher = more active; k-Seq, kA / k0A0; sequences stand for … in GGGAAUGGAUCCACAUCUACGAAUUC…UUCACUGCAGACUUGACGAAGCUG
In short: as §1

[6] = test system: biotinyl-Val-oxazolone; assay: self-aminoacylation, catalytic enhancement (BVO) (fold over background); higher = more active; k-Seq, kA / k0A0; sequences stand for … in GGGAAUGGAUCCACAUCUACGAAUUC…UUCACUGCAGACUUGACGAAGCUG
In short: as §1

Sequence: CUACUUCAAACAAAAGGUCUG [Fam1A.1 aminoacylation ribozyme variant]
- self-aminoacylation [1]: 0.624
- self-aminoacylation [2]: 0.618
- self-aminoacylation [3]: 0.784
- self-aminoacylation [4]: 0.592
- self-aminoacylation [5]: 0.822
- self-aminoacylation [6]: 0.946

Sequence: CUACUUCAAACAAACGUUCUG [Fam1A.1 aminoacylation ribozyme variant]
- self-aminoacylation [1]: 0.529
- self-aminoacylation [2]: 0.579
- self-aminoacylation [3]: 0.686
- self-aminoacylation [4]: 0.591
- self-aminoacylation [5]: 0.591
- self-aminoacylation [6]: 0.622

Sequence: CUACUUCAAACAAAGGGUCUG [Fam1A.1 aminoacylation ribozyme variant]
- self-aminoacylation [1]: 0.763
- self-aminoacylation [2]: 0.567
- self-aminoacylation [3]: 0.589
- self-aminoacylation [4]: 0.669
- self-aminoacylation [5]: 0.756
- self-aminoacylation [6]: 0.724

Sequence: CUACUUCAAACAACGGGUCUG [Fam1A.1 aminoacylation ribozyme variant]
- self-aminoacylation [1]: 0.716
- self-aminoacylation [2]: 0.627
- self-aminoacylation [3]: 0.618
- self-aminoacylation [4]: 0.697
- self-aminoacylation [5]: 0.937
- self-aminoacylation [6]: 0.904

Sequence: CUACUUCAAACAAGCGGUCUA [Fam1A.1 aminoacylation ribozyme variant]
- self-aminoacylation [1]: 0.838
- self-aminoacylation [2]: 0.73
- self-aminoacylation [3]: 0.85
- self-aminoacylation [4]: 0.669
- self-aminoacylation [5]: 0.936
- self-aminoacylation [6]: 0.707

Sequence: CUACUUCAAACAAUAGGUCAG [Fam1A.1 aminoacylation ribozyme variant]
- self-aminoacylation [1]: 0.602
- self-aminoacylation [2]: 0.577
- self-aminoacylation [3]: 1.19
- self-aminoacylation [4]: 0.568
- self-aminoacylation [5]: 0.688
- self-aminoacylation [6]: 0.812

Sequence: CUACUUCAAACAAUAGGUCGG [Fam1A.1 aminoacylation ribozyme variant]
- self-aminoacylation [1]: 0.643
- self-aminoacylation [2]: 0.754
- self-aminoacylation [3]: 0.7
- self-aminoacylation [4]: 0.676
- self-aminoacylation [5]: 0.792
- self-aminoacylation [6]: 0.693

Sequence: CUACUUCAAACAAUAGGUCUA [Fam1A.1 aminoacylation ribozyme variant]
- self-aminoacylation [1]: 0.699
- self-aminoacylation [2]: 0.639
- self-aminoacylation [3]: 0.832
- self-aminoacylation [4]: 0.756
- self-aminoacylation [5]: 0.755
- self-aminoacylation [6]: 0.776

Sequence: CUACUUCAAACAAUAGGUCUG [Fam1A.1 aminoacylation ribozyme variant]
- self-aminoacylation [1]: 0.696
- self-aminoacylation [2]: 0.681
- self-aminoacylation [3]: 1.11
- self-aminoacylation [4]: 0.617
- self-aminoacylation [5]: 0.813
- self-aminoacylation [6]: 0.817

Sequence: CUACUUCAAACAAUCCAUCUG [Fam1A.1 aminoacylation ribozyme variant]
- self-aminoacylation [1]: 0.489
- self-aminoacylation [2]: 0.546
- self-aminoacylation [3]: 1.08
- self-aminoacylation [4]: 0.402
- self-aminoacylation [5]: 0.656
- self-aminoacylation [6]: 0.748

Sequence: CUACUUCAAACAAUCCGGCUG [Fam1A.1 aminoacylation ribozyme variant]
- self-aminoacylation [1]: 1.4
- self-aminoacylation [2]: 1.44
- self-aminoacylation [3]: 1.01
- self-aminoacylation [4]: 0.952
- self-aminoacylation [5]: 1.5
- self-aminoacylation [6]: 1.78

Sequence: CUACUUCAAACAAUCCUUCUG [Fam1A.1 aminoacylation ribozyme variant]
- self-aminoacylation [1]: 0.577
- self-aminoacylation [2]: 0.469
- self-aminoacylation [3]: 1.04
- self-aminoacylation [4]: 0.528
- self-aminoacylation [5]: 0.603
- self-aminoacylation [6]: 0.665

Sequence: CUACUUCAAACAAUCGAACUG [Fam1A.1 aminoacylation ribozyme variant]
- self-aminoacylation [1]: 0.617
- self-aminoacylation [2]: 0.595
- self-aminoacylation [3]: 0.805
- self-aminoacylation [4]: 0.468
- self-aminoacylation [5]: 0.683
- self-aminoacylation [6]: 0.595

Sequence: CUACUUCAAACAAUCGAGCUG [Fam1A.1 aminoacylation ribozyme variant]
- self-aminoacylation [1]: 0.59
- self-aminoacylation [2]: 0.481
- self-aminoacylation [3]: 0.816
- self-aminoacylation [4]: 0.396
- self-aminoacylation [5]: 0.85
- self-aminoacylation [6]: 0.706

Sequence: CUACUUCAAACAAUCGAUUUG [Fam1A.1 aminoacylation ribozyme variant]
- self-aminoacylation [1]: 0.63
- self-aminoacylation [2]: 0.482
- self-aminoacylation [3]: 1.26
- self-aminoacylation [4]: 0.752
- self-aminoacylation [5]: 0.717
- self-aminoacylation [6]: 0.657

Sequence: CUACUUCAAACAAUCGCCCUG [Fam1A.1 aminoacylation ribozyme variant]
- self-aminoacylation [1]: 1.19
- self-aminoacylation [2]: 0.959
- self-aminoacylation [3]: 0.818
- self-aminoacylation [4]: 0.581
- self-aminoacylation [5]: 1.05
- self-aminoacylation [6]: 1.2

Sequence: CUACUUCAAACAAUCGCUCAG [Fam1A.1 aminoacylation ribozyme variant]
- self-aminoacylation [1]: 0.679
- self-aminoacylation [2]: 0.52
- self-aminoacylation [3]: 1
- self-aminoacylation [4]: 0.671
- self-aminoacylation [5]: 0.884
- self-aminoacylation [6]: 0.689

Sequence: CUACUUCAAACAAUCGGACUA [Fam1A.1 aminoacylation ribozyme variant]
- self-aminoacylation [1]: 0.579
- self-aminoacylation [2]: 0.617
- self-aminoacylation [3]: 1.13
- self-aminoacylation [4]: 0.655
- self-aminoacylation [5]: 0.831
- self-aminoacylation [6]: 0.744

Sequence: CUACUUCAAACAAUCGGAUUG [Fam1A.1 aminoacylation ribozyme variant]
- self-aminoacylation [1]: 0.953
- self-aminoacylation [2]: 0.719
- self-aminoacylation [3]: 2.03
- self-aminoacylation [4]: 1.3
- self-aminoacylation [5]: 0.999
- self-aminoacylation [6]: 0.89

Sequence: CUACUUCAAACAAUCGGCCAG [Fam1A.1 aminoacylation ribozyme variant]
- self-aminoacylation [1]: 1.02
- self-aminoacylation [2]: 1.19
- self-aminoacylation [3]: 1.84
- self-aminoacylation [4]: 0.954
- self-aminoacylation [5]: 1.44
- self-aminoacylation [6]: 1.36

Sequence: CUACUUCAAACAAUCGGCCUC [Fam1A.1 aminoacylation ribozyme variant]
- self-aminoacylation [1]: 1.63
- self-aminoacylation [2]: 1.89
- self-aminoacylation [3]: 11.8
- self-aminoacylation [4]: 7.78
- self-aminoacylation [5]: 1.8
- self-aminoacylation [6]: 1.88

Sequence: CUACUUCAAACAAUCGGCGUG [Fam1A.1 aminoacylation ribozyme variant]
- self-aminoacylation [1]: 4.44
- self-aminoacylation [2]: 6.1
- self-aminoacylation [3]: 6.45
- self-aminoacylation [4]: 5.22
- self-aminoacylation [5]: 3.35
- self-aminoacylation [6]: 3.12

Sequence: CUACUUCAAACAAUCGGUAAG [Fam1A.1 aminoacylation ribozyme variant]
- self-aminoacylation [1]: 0.454
- self-aminoacylation [2]: 0.448
- self-aminoacylation [3]: 1.29
- self-aminoacylation [4]: 0.835
- self-aminoacylation [5]: 0.516
- self-aminoacylation [6]: 0.662

Sequence: CUACUUCAAACAAUCGGUAUG [Fam1A.1 aminoacylation ribozyme variant]
- self-aminoacylation [1]: 0.789
- self-aminoacylation [2]: 0.995
- self-aminoacylation [3]: 21.5
- self-aminoacylation [4]: 10.1
- self-aminoacylation [5]: 0.788
- self-aminoacylation [6]: 0.799

Sequence: CUACUUCAAACAAUCGGUCCG [Fam1A.1 aminoacylation ribozyme variant]
- self-aminoacylation [1]: 0.745
- self-aminoacylation [2]: 0.862
- self-aminoacylation [3]: 8.83
- self-aminoacylation [4]: 5.32
- self-aminoacylation [5]: 0.711
- self-aminoacylation [6]: 0.749

Sequence: CUACUUCAAACAAUCGGUGGG [Fam1A.1 aminoacylation ribozyme variant]
- self-aminoacylation [1]: 0.811
- self-aminoacylation [2]: 0.878
- self-aminoacylation [3]: 1.14
- self-aminoacylation [4]: 0.856
- self-aminoacylation [5]: 0.934
- self-aminoacylation [6]: 0.816
